Target: human IGF1R ectodomain (Δβ mutant) (human) (UniProt P08069)
Assay: radioligand binding

IC50: 0.4 nM
Substance: human IGF-1 (unlabeled) (from UniProt P05019 49-118) (ligand)
